# Legend:
# Assay in all cases: SPOT array
# Abp1, P15891 = biological target: T1, Abp1, P15891; conditions: median of control spots 935
# T1 sequence (P15891 535-592, looked up): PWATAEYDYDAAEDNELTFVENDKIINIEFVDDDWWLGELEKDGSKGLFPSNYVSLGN
# Bbc1, P47068 = biological target: T2, Bbc1, P47068; conditions: median of control spots 796
# T2 sequence (P47068 1-78, looked up): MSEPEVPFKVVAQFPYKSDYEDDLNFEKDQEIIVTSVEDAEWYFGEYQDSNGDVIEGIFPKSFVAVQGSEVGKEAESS
# Bem1-1, P29366 = conditions: median of control spots 4282
# Bem1-2, P29366 = conditions: median of control spots 4347
# Boi1, P38041 = biological target: T3, Boi1, P38041; conditions: median of control spots 1162
# T3 sequence (P38041 1-86, looked up): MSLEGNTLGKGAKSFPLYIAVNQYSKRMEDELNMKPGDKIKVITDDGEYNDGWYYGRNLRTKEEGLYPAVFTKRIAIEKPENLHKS
# Boi2, P39969 = biological target: T4, Boi2, P39969; conditions: median of control spots 1161
# T4 sequence (P39969 32-116, looked up): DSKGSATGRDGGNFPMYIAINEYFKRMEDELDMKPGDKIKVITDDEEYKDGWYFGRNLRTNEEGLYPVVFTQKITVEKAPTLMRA
# Bud14, P27637 = biological target: T5, Bud14, P27637; conditions: median of control spots 956
# T5 sequence (P27637 247-328, looked up): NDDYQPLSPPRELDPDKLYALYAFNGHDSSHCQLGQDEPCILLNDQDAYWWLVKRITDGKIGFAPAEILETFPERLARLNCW
# Bzz1-1, P38822 = biological target: T6, Bzz1-1, P38822; conditions: median of control spots 4446
# T6 sequence (P38822 478-572, looked up): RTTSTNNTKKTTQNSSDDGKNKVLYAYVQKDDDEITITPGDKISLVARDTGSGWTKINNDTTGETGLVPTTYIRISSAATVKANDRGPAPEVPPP
# Bzz1-2, P38822 = biological target: T7, Bzz1-2, P38822; conditions: median of control spots 4538
# T7 sequence (P38822 568-633, looked up): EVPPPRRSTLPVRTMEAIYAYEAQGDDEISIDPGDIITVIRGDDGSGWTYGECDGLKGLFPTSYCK
# Cdc25, P04821 = biological target: T8, Cdc25, P04821; conditions: median of control spots 969
# T8 sequence (P04821 50-136, looked up): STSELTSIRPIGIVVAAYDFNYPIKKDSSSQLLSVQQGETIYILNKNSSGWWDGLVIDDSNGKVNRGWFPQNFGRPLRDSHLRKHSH
# Cyk3, Q07533 = biological target: T9, Cyk3, Q07533; conditions: median of control spots 1451
# T9 sequence (Q07533 1-83, looked up): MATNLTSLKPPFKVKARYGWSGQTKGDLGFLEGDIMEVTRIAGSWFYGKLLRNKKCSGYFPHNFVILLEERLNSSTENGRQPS
# Fus1, P11710 = biological target: T10, Fus1, P11710; conditions: median of control spots 1200
# T10 sequence (P11710 432-512, looked up): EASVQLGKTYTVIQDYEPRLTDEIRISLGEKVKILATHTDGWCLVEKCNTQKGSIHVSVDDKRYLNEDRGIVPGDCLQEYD
# GST = conditions: median of control spots 978
# Hof1, Q05080 = biological target: T11, Hof1, Q05080; conditions: median of control spots 4086
# T11 sequence (Q05080 590-669, looked up): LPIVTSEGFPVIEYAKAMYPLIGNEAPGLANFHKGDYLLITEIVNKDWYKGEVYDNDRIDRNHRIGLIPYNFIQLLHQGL
# Hse1, P38753 = biological target: T12, Hse1, P38753; conditions: median of control spots 1727
# T12 sequence (P38753 208-285, looked up): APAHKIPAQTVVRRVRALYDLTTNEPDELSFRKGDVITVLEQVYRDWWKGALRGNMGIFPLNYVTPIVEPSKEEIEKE
# Lsb1, P53281 = biological target: T13, Lsb1, P53281; conditions: median of control spots 388
# T13 sequence (P53281 45-122, looked up): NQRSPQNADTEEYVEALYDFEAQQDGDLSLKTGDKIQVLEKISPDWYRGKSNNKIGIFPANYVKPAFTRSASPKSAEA
# Lsb3, P43603 = biological target: T14, Lsb3, P43603; conditions: median of control spots 406
# T14 sequence (P43603 385-451, looked up): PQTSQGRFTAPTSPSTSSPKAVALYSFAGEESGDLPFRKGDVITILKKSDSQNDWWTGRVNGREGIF
# Lsb4, P32793 = biological target: T15, Lsb4, P32793; conditions: median of control spots 397
# T15 sequence (P32793 402-468, looked up): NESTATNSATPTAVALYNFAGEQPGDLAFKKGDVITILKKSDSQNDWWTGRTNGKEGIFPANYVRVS
# Myo3, P36006 = conditions: median of control spots 468
# Myo5, Q04439 = biological target: T16, Myo5, Q04439; conditions: median of control spots 471
# T16 sequence (Q04439 1072-1160, looked up): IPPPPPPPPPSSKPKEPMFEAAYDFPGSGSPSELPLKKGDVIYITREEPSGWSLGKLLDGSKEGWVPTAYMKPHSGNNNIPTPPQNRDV
# Nbp2, Q12163 = biological target: T17, Nbp2, Q12163; conditions: median of control spots 357
# T17 sequence (Q12163 103-180, looked up): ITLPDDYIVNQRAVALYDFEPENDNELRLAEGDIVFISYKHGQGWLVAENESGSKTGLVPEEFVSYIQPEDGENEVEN
# Pex13, P80667 = biological target: T18, Pex13, P80667; conditions: median of control spots 1341
# T18 sequence (P80667 295-386, looked up): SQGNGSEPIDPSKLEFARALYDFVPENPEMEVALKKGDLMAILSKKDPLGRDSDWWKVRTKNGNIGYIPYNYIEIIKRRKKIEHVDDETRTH
# Pin3, Q06449 = biological target: T19, Pin3, Q06449; conditions: median of control spots 2171
# T19 sequence (Q06449 53-122, looked up): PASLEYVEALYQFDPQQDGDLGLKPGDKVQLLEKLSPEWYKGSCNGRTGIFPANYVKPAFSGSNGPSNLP
# Rvs167, P39743 = conditions: median of control spots 2707
# Sho1, P40073 = conditions: median of control spots 1148
# Sla1-2, P32790 = biological target: T20, Sla1-2, P32790; conditions: median of control spots 712
# T20 sequence (P32790 60-140, looked up): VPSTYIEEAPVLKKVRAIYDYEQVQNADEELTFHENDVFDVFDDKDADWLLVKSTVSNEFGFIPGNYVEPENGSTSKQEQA
# Sla1-3, P32790 = biological target: T21, Sla1-3, P32790; conditions: median of control spots 5475
# T21 sequence (P32790 344-424, looked up): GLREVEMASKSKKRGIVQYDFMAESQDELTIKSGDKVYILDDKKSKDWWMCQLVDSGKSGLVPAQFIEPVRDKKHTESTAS
# Chain of Rvs167, P39743 (P39743 419-482): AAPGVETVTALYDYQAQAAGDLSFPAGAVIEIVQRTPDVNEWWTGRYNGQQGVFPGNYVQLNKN
# Chain of Bem1-1, P29366 (P29366 55-141): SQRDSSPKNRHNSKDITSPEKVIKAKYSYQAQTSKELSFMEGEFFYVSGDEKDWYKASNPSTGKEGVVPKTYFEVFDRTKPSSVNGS
# Chain of Sho1, P40073 (P40073 287-367): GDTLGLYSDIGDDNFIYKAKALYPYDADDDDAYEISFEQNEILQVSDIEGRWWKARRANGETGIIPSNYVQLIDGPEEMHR
# Chain of Bem1-2, P29366 (P29366 139-227): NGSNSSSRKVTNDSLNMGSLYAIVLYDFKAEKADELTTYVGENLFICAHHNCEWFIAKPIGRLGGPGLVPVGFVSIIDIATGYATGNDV
Binder,"SPOT intensity (Abp1, P15891)","SPOT intensity (Bbc1, P47068)","SPOT intensity (Bem1-1, P29366)","SPOT intensity (Bem1-2, P29366)","SPOT intensity (Boi1, P38041)","SPOT intensity (Boi2, P39969)","SPOT intensity (Bud14, P27637)","SPOT intensity (Bzz1-1, P38822)","SPOT intensity (Bzz1-2, P38822)","SPOT intensity (Cdc25, P04821)","SPOT intensity (Cyk3, Q07533)","SPOT intensity (Fus1, P11710)",SPOT intensity (GST),"SPOT intensity (Hof1, Q05080)","SPOT intensity (Hse1, P38753)","SPOT intensity (Lsb1, P53281)","SPOT intensity (Lsb3, P43603)","SPOT intensity (Lsb4, P32793)","SPOT intensity (Myo3, P36006)","SPOT intensity (Myo5, Q04439)",also measured
DDEDVPPQLPTRTKS,0,5,0,3,2,1,1,0,0,0,0,0,1,0,2,58,556,897,0,0,"SPOT intensity (Nbp2, Q12163): 0; SPOT intensity (Pex13, P80667): 97; SPOT intensity (Pin3, Q06449): 2; SPOT intensity (Rvs167, P39743): 1260; SPOT intensity (Sho1, P40073): 0; SPOT intensity (Sla1-2, P32790): 0; SPOT intensity (Sla1-3, P32790): 1"
EEEEEHPPLPARRKS,0,9,0,3,0,0,0,4,3,0,0,0,0,0,0,32,683,590,0,0,"SPOT intensity (Nbp2, Q12163): 1; SPOT intensity (Pex13, P80667): 155; SPOT intensity (Pin3, Q06449): 0; SPOT intensity (Rvs167, P39743): 222; SPOT intensity (Sho1, P40073): 0; SPOT intensity (Sla1-2, P32790): 0; SPOT intensity (Sla1-3, P32790): 1"
ISNFVPPNLPMRRFK,129,199,1,7,0,0,8,1,19,0,0,0,1,5,72,63,588,452,59,37,"SPOT intensity (Nbp2, Q12163): 1; SPOT intensity (Pex13, P80667): 671; SPOT intensity (Pin3, Q06449): 217; SPOT intensity (Rvs167, P39743): 2140; SPOT intensity (Sho1, P40073): 65; SPOT intensity (Sla1-2, P32790): 39; SPOT intensity (Sla1-3, P32790): 3"
LKRITSPPLPPRADS,40,33,0,0,1,0,3,0,6,0,0,0,0,520,38,892,566,700,75,4,"SPOT intensity (Nbp2, Q12163): 0; SPOT intensity (Pex13, P80667): 145; SPOT intensity (Pin3, Q06449): 11; SPOT intensity (Rvs167, P39743): 4040; SPOT intensity (Sho1, P40073): 65; SPOT intensity (Sla1-2, P32790): 0; SPOT intensity (Sla1-3, P32790): 0"

# Reference: article PMC2756588
